The subject of the series is CdpR (Pseudomonas aeruginosa PAO1). Kind of series: EMSA.

pqsH-p (pqsH-cdpR intergenic region) yielded a K half of 500 nM.

These data come from article PMC4847859.
